PMC3776838, “Detection of Phospho-Sites Generated by Protein Kinase CK2 in CFTR: Mechanistic Aspects of Thr1471 Phosphorylation” (PLoS ONE, 2013)

Biological target: Human CK2 α2β2-holoenzyme (human) (UniProt P68400)
Sequence (P68400 whole entry, chain 1 of 2): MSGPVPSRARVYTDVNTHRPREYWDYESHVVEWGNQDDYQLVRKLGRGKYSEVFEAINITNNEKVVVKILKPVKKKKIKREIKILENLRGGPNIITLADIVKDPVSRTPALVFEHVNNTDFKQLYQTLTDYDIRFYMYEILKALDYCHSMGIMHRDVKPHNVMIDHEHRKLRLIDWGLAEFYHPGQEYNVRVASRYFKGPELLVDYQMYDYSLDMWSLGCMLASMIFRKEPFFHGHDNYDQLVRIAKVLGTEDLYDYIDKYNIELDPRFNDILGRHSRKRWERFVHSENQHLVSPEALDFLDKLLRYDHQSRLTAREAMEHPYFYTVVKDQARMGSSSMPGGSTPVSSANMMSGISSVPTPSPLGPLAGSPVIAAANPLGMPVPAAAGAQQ
Sequence (P67870 whole entry, chain 2 of 2, further chain): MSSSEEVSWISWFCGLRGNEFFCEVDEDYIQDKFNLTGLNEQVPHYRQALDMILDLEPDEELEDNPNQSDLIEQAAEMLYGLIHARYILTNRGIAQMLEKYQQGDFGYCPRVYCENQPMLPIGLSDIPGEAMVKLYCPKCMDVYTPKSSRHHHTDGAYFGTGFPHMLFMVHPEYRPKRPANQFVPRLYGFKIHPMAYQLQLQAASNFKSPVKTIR

Sequence of 42-mer peptide reproducing the C-terminal tail of human CFTR (residues 1439–1480) (P13569 1439-1480): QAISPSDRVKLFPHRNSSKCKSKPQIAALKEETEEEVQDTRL

- Km of phosphorylation of the 42-mer by CK2 holoenzyme (33P incorporation, Figure 3): 1.4 µM
Substance: 42-mer peptide reproducing the C-terminal tail of human CFTR (residues 1439–1480) (from UniProt P13569 1439-1480) (domain or fragment)
